Our source for the binding signal values is publication PMC6882875.

What all share (assay): EMSA
Holding throughout (conditions): EMSA: binding buffer stock 80 mM Tris-HCl pH 8.0, 20 mM MgCl2, 2 mM DTT, 4 mM EDTA, 400 mM KCl, 40% glycerol (final dilution not stated); poly(dI-dC) …
On the technique in general: A gel shift assay detects complexes by their altered migration in electrophoresis.

Series [1] concerns T1, MalR1 (Bifidobacterium breve UCC2003), ORF:82221dfa.
T1 sequence: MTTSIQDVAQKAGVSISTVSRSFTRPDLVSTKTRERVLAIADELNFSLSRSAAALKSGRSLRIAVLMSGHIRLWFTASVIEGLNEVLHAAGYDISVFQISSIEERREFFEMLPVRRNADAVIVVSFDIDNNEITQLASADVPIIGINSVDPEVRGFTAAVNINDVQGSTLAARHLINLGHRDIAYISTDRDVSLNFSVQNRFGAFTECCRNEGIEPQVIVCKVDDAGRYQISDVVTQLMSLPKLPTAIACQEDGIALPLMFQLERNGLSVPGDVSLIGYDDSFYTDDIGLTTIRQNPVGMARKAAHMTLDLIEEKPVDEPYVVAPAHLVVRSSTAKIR

Series [2] deals with T2, AraQ (Bifidobacterium breve UCC2003), ORF:c628000b.
T2 sequence: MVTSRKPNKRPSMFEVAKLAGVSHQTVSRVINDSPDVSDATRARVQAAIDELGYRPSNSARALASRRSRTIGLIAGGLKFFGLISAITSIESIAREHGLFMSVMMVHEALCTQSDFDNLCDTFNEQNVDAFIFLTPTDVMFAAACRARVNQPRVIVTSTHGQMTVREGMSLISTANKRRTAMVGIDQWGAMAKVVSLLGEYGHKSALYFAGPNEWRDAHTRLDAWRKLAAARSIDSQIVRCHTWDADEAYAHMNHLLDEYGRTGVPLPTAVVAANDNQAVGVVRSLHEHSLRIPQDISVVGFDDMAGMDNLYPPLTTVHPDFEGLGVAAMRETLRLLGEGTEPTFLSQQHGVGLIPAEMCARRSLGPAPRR

The test system of series [3] is MalR1 (Bifidobacterium breve UCC2003).
Series [4] has as its system AraQ (Bifidobacterium breve UCC2003).

Take “GGTTGTCGTAATCCTCGGTGGAAGGACCGATGGTGTCTACGATCTTGGCTTTACGCATGAATGCCTGCCTATTCTTGTTCTTTTTTGGTTCGAGGCGCGATTGCCTCACTTGCCGCAGCCCAGTCTACTAGCGCAGACCGGCTCATGACAAGTTTATTCCCCGGTGTGTTGTGAGCGCTCACACTGTTGCGCCGATTGGGTTTTGAGGGGTTGATTTCCCTATGATTTCAGGCCTTCTCAGCG (double strand) [pyk promoter]”: the binding signal result in series [1] and in series [2] was “binds” throughout.

In the case of “GGTCAAGCTCATCGTGCGGGGCAGCTGTGGGTGCTGATTATTTCTTGAAGAAGGCTAAATAAGGCTTTTGAGACCTCCTGCAGGGGAGTCACTGTTGATGCTGTTTCGTCGTGTCGAATCGGTTCGCGAGTTGACAAACAAAAAACTATGCGCTTAAATATTAATCACAATCTACGCGGTTAGATTGTTGAGAAGTAACAGTTCAAGGAGGAACGAGGAATGAAGCGAAGCATGTTCAAGATGGCGACTGCCATCATCGCCAGTGCGGCTATGCTGACCAG (double strand) [Bbr_1658 promoter]”, the binding signal in series [1] and in series [2] was 0 % bound in each case.

Substance malR2 promoter showed a binding signal in series [3] of 0 % bound.

In the case of Bbr_1658 promoter, the binding signal in series [4] and in series [3] was 0 % bound in each case.

For the substance “CATACGCCTCTCGCTTTCGTCATTGGGCCGACGTCACTGCCGGCACAAAACCGCGACACATGTATGCGTCTTGGTCAACGCTGAATCGTCTCATCACTGAAATGATTTAACGTTTAATCACTTGCGTGATTCATAATATATCGTTTAATCACAGGGGTCAATCAGCGTGTCGAGAGCGTTAACAATCGCGTCCTAACGCCATTACCAGCACATCAGAAACACAATATGGCACAAAAAAAGACAAAATATTGGCGGCGAAGGACTATTGAGC (double strand) [rbsA1 promoter]”, the binding signal result was “binds” in series [1] and 0 % bound in series [2].

agl3 promoter: the binding signal in series [4] and in series [3] was 0 % bound in each case.

For the substance “GATGAGTGCGCGTGAGAAGAAGAAGGCTGCCGTAGAAGCGAAATAATCGGTGCATGGCCGCTCTGCAGATATATGGAGGGCGGTCTGCGAACCGCCGGGAATGGGTTGCCAATCCCGGCGGTTTGTGTATCCGTGGCGCAGTACAGTCGTAAAGGAAGGCAAGGAGGACAACCATGGCGGAAGGTGTACCGAAGTATATTGCGGTTAGGGACAATCTTCGCCAGCGTG (double strand) [gntR promoter]”, the binding signal in series [1] and in series [2] was 0 % bound in each case.

rbsA1 promoter had a binding signal in series [4] of 0 % bound.

On to “GCGTTCTATCCTTGCACTGAGCCACGAAAGACGGCATTGTGCAAACGATGGCATACTGTGGGATGCGGAATGACAAGACATGTGATACTCTCTGACTGAGAACGTATGCAACAACTGTCTGCCAACGCTGTTACAGAGAGTTCATGCACACGTTTATGCGACGATACCAATCGCGCGGCATAATAAGCACGGGCACTTATCCCGGAAGGAAAGTCAGAATG (double strand) [glgP1 promoter]”, for which the binding signal in series [1] is 0 % bound; in series [2], “binds”.

Consider cldR promoter, for which the binding signal in series [4] and in series [3] was 0 % bound throughout.

On to gntR promoter, for which the binding signal in series [4] and in series [3] was 0 % bound in each case.

Regarding Bbr_1841 promoter, the binding signal in series [4] is less than 15 % bound; in series [3], 0 % bound.

Consider glgP2 promoter, for which the binding signal in series [4] and in series [3] was 0 % bound each time.

Regarding Bbr_1659 promoter, the binding signal in series [4] and in series [3] was 0 % bound throughout.

With Bbr_1420 promoter, the binding signal in series [4] was 0 % bound; in series [3], less than 15 % bound.

With “GCTCGCTTTTGCCATGGCAACCTCGCTCATCAACAGTGGATAACAATCCCGCTCAAAAGACAACGTTATCATACCTAAGCGAGCAACATGCACGCCACGCTGTCTATTTAGAAGTGCAACGCCCCTGTTCGTCGGCTAATTCTTGCAGTTCGTCGGTGAATGCCCCGGGCCCCCGGATTCAACTTGTAAGTGCAACGGCTGGTTTCGG (double strand) [malR2 promoter]”, the binding signal is 0 % bound in series [1] and “binds” in series [2].

Substance cldE promoter showed a binding signal in series [4] of 0 % bound.

In series [3], nrdH promoter came in with a binding signal of 0 % bound.

Substance Bbr_1894 (PTS) promoter returned a binding signal in series [3] of less than 15 % bound.

With malR5/malE2 intergenic region, the binding signal in series [4] and in series [3] was less than 15 % bound each time.

For the substance “CTTCGCCACGTCATACACCGTTGCCCTACGCATGATTCCTACTTTAATCGATTCCGGAGGTCAGCACACGTTCGACCTGAATCTAAAAAAAGTTTTAGTGGCTTTCCTGTCAATCTCGCATGCATACTTCAGGTTACGGGCGCAGCACCCAATAATGGGTACCGCGCCTTAATGACCGCTACACGAGCAGTCTCAGCAACTGGTAAAGCTGCCATAGGCTGCGCACGTTG (double strand) [Bbr_1659 promoter]”, the binding signal in series [1] and in series [2] was 0 % bound in each case.

Regarding glgP1 promoter, the binding signal in series [3] is 0 % bound.

For the substance “CGACAGCTTCCTTGCCATGCTGGCCCTCCTTTATTTTCCAACCCTCGGTTTTCCGCATTGTGCAATCTGCATTGTTTGCCTTGCGGAATCTTAGGAAATTATTTTCCTAAAATGTTTTCTTGAGATAAGATTATAGGACGCCAACGTCAGTGTCAACACGGCGGGTCGAGGGTCGCACAACCCGGACCGAACGGCCCACAATGGCGACGTAGCAAGGAACAGAACGCTACGCCCTTGTACACTGATACAGAGGAAAACAGGCAGGAGGGGAGACATGAACATCAGGGACATCGCACGC (double strand) [Bbr_1841 promoter]”, the binding signal in series [1] is 0 % bound; in series [2] it was less than 15 % bound.

Take “CGAATGCCATATCCGTCTCCTCCTTGCGGCTTACTGCAGCGTTAGAAATGCACAATTCAAATGTACCCTTCTTATAACCGACGCCCGCAAGGTCGTGTCATGCGTCAAACTCTTTTACTGCAGACATTTTTGAGGCTTCTGCTGTTTTCGTGGGCTAGCTGACTGGTTCCGGTAGTCGGATGTCGAGTCCGCCGCATCTGAGCATGATC (double strand) [Bbr_1420 promoter]”: the results for the binding signal in series [1] and in series [2] were less than 15 % bound and 0 % bound, respectively.

In turn, malE promoter displayed a binding signal in series [3] of 0 % bound.

For malQ promoter, the binding signal is less than 15 % bound in series [4] and 0 % bound in series [3].

malG2 (F2) promoter came in with a binding signal in series [3] of 0 % bound.

For the substance malR3/apuB intergenic region, the binding signal in series [4] and in series [3] was less than 15 % bound in each case.
